One substance from paper PMC3463765 can be followed below.

Assay [1] has as its target horse serum butyrylcholinesterase (horse). Description: native gel or EMSA.
Assay [2] has the same target. Description: native gel or EMSA. This is another data set of the same source. A general note: A gel shift assay detects complexes by their altered migration in electrophoresis.
Assay [3] shares this target. Description: SDS-PAGE without reducing agent.

Broadly, the stoichiometry N is a count of units in the complex or per binding partner.

Values joined by “and” are separate entries in the source; they are usually repeats but may differ in a detail not shown here. Identical values can stand only once.

“horse serum butyrylcholinesterase (enzyme)”: the stoichiometry N in assay [1] is 2 and 4; in assay [2], 4; in assay [3] it was 2.
